Experimental data published in patent publication US20250009750A1, “METHODS OF TREATING DISORDERS ASSOCIATED WITH EYA OVEREXPRESSION AND MUTATIONS” (The Board of Regents of the University of Texas System, priority 2023, published 2025).
Entries after “also recorded” stand apart in the source; their conditions may differ. One block for each molecule: values may come before it.

Columns and labels:
cells depleted for EYA4 = assay: MTT cell cytotoxicity assay, genotoxic stress (ATR inhibitor or hydroxyurea); type: cell-based; conditions: EYA4-depleted versus control cells, FIG. 21B, FIG. 22A
Experimental: For genotoxic stress, cells were seeded into 96-well plates (200 cells/well). Twenty-four hours after seeding, increasing concentrations of ATR inhibitor (AZ20) or hydroxyurea were added to the culture (24 h pulse). Cell cytotoxicity was measured after 96 h following manufacturer's protocol (Abcam ab211091). Briefly, 50 μL serum-free media (no phenol red) and 50 μL MTT reagent was added to each well and incubated at 37° C. for 3 h. MTT media was replaced with 150 μL of MTT solvent and incubated with agitation for 15 mn. Absorbance was measured at 590 nm. The cell viability was calculated using the following equation: […]

TKCC02.1 cells = assay: Survival of TKCC02.1 cells, alone and in combination; type: cell-based; conditions: TKCC02.1, at doses tested, FIG. 35, FIG. 36
Experimental: Similar doses of EYA4i were tested alone and in combination with PARPi (olaparib) or Camptothecin (CPT).

[1] = tested on: HeLa cells (empty vector or knocked down for EYA4); assay: MTT cell cytotoxicity assay with PARP inhibitor; type: cell-based; conditions: EYA4-depleted versus control cells, FIG. 5D
Experimental: HeLa cells (empty vector or knocked down for EYA4) were seeded in 96-well plates. After 24 hrs, increasing concentrations of PARP inhibitor (olaparib) were added. Cell cytotoxicity was measured following manufacturer's protocol (Abcam ab211091). Briefly, 50 μL serum-free media and 50 μL MTT reagent was added to each well and incubated at 37° C. for 3 hrs. MTT media was replaced with 150 μL of MTT solvent and incubated with agitation for 15 min. Absorbance was measured at 590 nm.

cy5-labeled ssDNA = assay: Microscale thermophoresis (MST) DNA binding, ssDNA
Experimental: (§1) A total of 12 concentrations of ligand proteins (e.g., EYA (1-365)) were serially diluted by 1:1 using MST buffer from 5 uM to 2.4 nM, 10 ul of each dose of ligand protein was mixed with 10 ul of cy5-labeled dsDNA/ssDNA supernatant. The mixture of EYA and DNA was loaded into premium capillaries for MST assay with parameters set up at auto-detected excitation power and medium MST power. Binding affinity was analyzed by MO. Affinity Analysis software (version 2.1.3, NanoTemper Technologies) using the signal from an MST-on time of 20 s. Three individual experiments were merged to generate standard deviation.
(§2) Cy5-labeled oligo P1 (T. T. Paull Curr Opin Genet Dev 71, 55-62 (2021)). from IDT ([…]-[…]; SEQ ID NO:1) was used as the ssDNA substrate. dsDNA was generated by annealing Cy5-labeled oligo P1 with its exact complement P2 […]-AAATAAGTAAAAG […] (SEQ ID NO:2). The annealed product was purified by SDS-PAGE then concentrated and quantified. For the long system assays, substrates were sourced from NEB. The ssDNA is the ϕX174 virion DNA and the dsDNA its replicative form ϕX174 RF I DNA.

cy5-labeled dsDNA = assay: Microscale thermophoresis (MST) DNA binding, dsDNA
Experimental: as §1, §2

RAD51 Y54F,Y315F [2] = molecular target: T1, RAD51 Y54F,Y315F (UniProt Q06609 Q06609:1-339, Y54F,Y315F); assay: MST; +/- 7.3 nM, Hill 3.31; conditions: tags: pET11 construct, E. coli BLR(DE3)pLysS; label: Cy5
RAD51 WT [3] = molecular target: T2, RAD51 WT (UniProt Q06609 Q06609:1-339); assay: MST; +/- 18.1 nM, Hill 2.66; conditions: tags: pET11 construct, E. coli BLR(DE3)pLysS; label: Cy5
RAD51 Y54F,Y315F [4] = molecular target: T1, RAD51 Y54F,Y315F; assay: MST; +/- 11.7 nM, Hill 7.07; conditions: tags: pET11 construct, E. coli BLR(DE3)pLysS; label: Cy5 on P1
RAD51 WT [5] = molecular target: T2, RAD51 WT; assay: MST; +/- 162.5 nM, Hill 2.30; conditions: tags: pET11 construct, E. coli BLR(DE3)pLysS; label: Cy5 on P1
RAD51 Y54D,Y315D = RAD51 Y54D,Y315D (UniProt Q06609 Q06609:1-339, Y54D,Y315D); assay: MST; +/- 0.4951 uM, Hill 2.67; conditions: tags: pET11 construct, E. coli BLR(DE3)pLysS; label: Cy5 on P1
[6] = EYA4 constructs binding ssDNA, Table 4
[7] = EYA4 constructs binding dsDNA, Table 4
[8] = RAD51 proteins binding ssDNA, Table 5
[9] = RAD51 proteins binding dsDNA, Table 5

T2 sequence (Q06609 whole entry, one chain of several): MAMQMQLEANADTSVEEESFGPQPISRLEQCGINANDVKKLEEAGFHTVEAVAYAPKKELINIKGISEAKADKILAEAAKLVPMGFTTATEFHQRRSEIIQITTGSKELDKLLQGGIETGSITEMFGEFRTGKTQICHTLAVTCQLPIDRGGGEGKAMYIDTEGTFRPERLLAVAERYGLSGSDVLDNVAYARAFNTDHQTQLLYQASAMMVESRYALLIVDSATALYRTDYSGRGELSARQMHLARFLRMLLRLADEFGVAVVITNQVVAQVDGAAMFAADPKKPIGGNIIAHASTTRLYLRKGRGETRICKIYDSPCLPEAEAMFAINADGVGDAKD

Molecule: C[C@@H]1COCCN1c1cc(C2(S(C)(=O)=O)CC2)nc(-c2cccc3[nH]ccc23)n1 [AZ20]
sensitivity of cells depleted for EYA4 (MTT) (cells depleted for EYA4): sensitive

Molecule: CC[C@@]1(O)C(=O)OCc2c1cc1n(c2=O)Cc2cc3ccccc3nc2-1 [CPT]
lethality / efficacy as single agent (TKCC02.1 cells): not lethal; also recorded: neither PARPi nor CPT are lethal

Molecule: O=C(c1cc(Cc2n[nH]c(=O)c3ccccc23)ccc1F)N1CCN(C(=O)C2CC2)CC1 [Olaparib]
lethality / efficacy as single agent (TKCC02.1 cells; listed as PARPi): not lethal; also recorded: neither PARPi nor CPT are lethal | sensitivity of cells depleted for EYA4 (survival, MTT) [1]: sensitive

Molecule: NC(=O)NO [hydroxyurea]
sensitivity of cells depleted for EYA4 (MTT) (cells depleted for EYA4): sensitive

EC50 (cy5-labeled ssDNA; [6]): 303 nM | Kd (cy5-labeled ssDNA; ssDNA binding, FIG. 3C): 303 nM | EC50 (cy5-labeled dsDNA; [7]): 733 nM | Kd (cy5-labeled dsDNA; dsDNA binding, FIG. 3C): 732 nM
B1: 1-365: N-terminally m-cherry-tagged EYA4 (aa 1-365), purified (protein, UniProt O95677 1-365, looked up, fragment)
chain: MEDSQDLNEQSVKKTCTESDVSQSQNSRSMEMQDLASPHTLVGGGDTPGSSKLEKSNLSSTSVTTNGTGGENMTVLNTADWLLSCNTPSSATMSLLAVKTEPLNSSETTATTGDGALDTFTGSVITSSGYSPRSAHQYSPQLYPSKPYPHILSTPAAQTMSAYAGQTQYSGMQQPAVYTAYSQTGQPYSLPTYDLGVMLPAIKTESGLSQTQSPLQSGCLSYSPGFSTPQPGQTPYSYQMPGSSFAPSSTIYANNSVSNSTNFSGSQQDYPSYTAFGQNQYAQYYSASTYGAYMTSNNTADGTPSSTSTYQLQESLPGLTNQPGEFDTMQSPSTPIKDLDERTCRSSGSKSRGRGRKNNPSPPPD
modifications: N-terminal mCherry tag
notes: N-terminally m-cherry-tagged EYA4 (aa 1-365), purified

EC50 (cy5-labeled ssDNA; [8]): 515 nM | EC50 (cy5-labeled dsDNA; [9]): 1160 nM
B2: WT: purified wild type RAD51 (protein, UniProt Q06609 2-339, looked up)
DNA repair protein RAD51 …: AMQMQLEANADTSVEEESFGPQPISRLEQCGINANDVKKLEEAGFHTVEAVAYAPKKELINIKGISEAKADKILAEAAKLVPMGFTTATEFHQRRSEIIQITTGSKELDKLLQGGIETGSITEMFGEFRTGKTQICHTLAVTCQLPIDRGGGEGKAMYIDTEGTFRPERLLAVAERYGLSGSDVLDNVAYARAFNTDHQTQLLYQASAMMVESRYALLIVDSATALYRTDYSGRGELSARQMHLARFLRMLLRLADEFGVAVVITNQVVAQVDGAAMFAADPKKPIGGNIIAHASTTRLYLRKGRGETRICKIYDSPCLPEAEAMFAINADGVGDAKD

EC50 (cy5-labeled ssDNA; [8]): 427 nM | EC50 (cy5-labeled dsDNA; [9]): 561 nM
B3: YF, YF: double-mutant RAD51 (Y54F, Y315F) that cannot be phosphorylated (protein, UniProt Q06609 2-339, looked up, variant Y54F Y315F)
DNA repair protein RAD51 …: AMQMQLEANADTSVEEESFGPQPISRLEQCGINANDVKKLEEAGFHTVEAVAFAPKKELINIKGISEAKADKILAEAAKLVPMGFTTATEFHQRRSEIIQITTGSKELDKLLQGGIETGSITEMFGEFRTGKTQICHTLAVTCQLPIDRGGGEGKAMYIDTEGTFRPERLLAVAERYGLSGSDVLDNVAYARAFNTDHQTQLLYQASAMMVESRYALLIVDSATALYRTDYSGRGELSARQMHLARFLRMLLRLADEFGVAVVITNQVVAQVDGAAMFAADPKKPIGGNIIAHASTTRLYLRKGRGETRICKIFDSPCLPEAEAMFAINADGVGDAKD

EC50 (cy5-labeled ssDNA; [8]): > 5000 nM | EC50 (cy5-labeled dsDNA; [9]): 3070 nM
B4: YD, YD: double phospho-mimetic RAD51 (Y54D, Y315D) (protein, UniProt Q06609 2-339, looked up, variant Y54D Y315D)
DNA repair protein RAD51 …: AMQMQLEANADTSVEEESFGPQPISRLEQCGINANDVKKLEEAGFHTVEAVADAPKKELINIKGISEAKADKILAEAAKLVPMGFTTATEFHQRRSEIIQITTGSKELDKLLQGGIETGSITEMFGEFRTGKTQICHTLAVTCQLPIDRGGGEGKAMYIDTEGTFRPERLLAVAERYGLSGSDVLDNVAYARAFNTDHQTQLLYQASAMMVESRYALLIVDSATALYRTDYSGRGELSARQMHLARFLRMLLRLADEFGVAVVITNQVVAQVDGAAMFAADPKKPIGGNIIAHASTTRLYLRKGRGETRICKIDDSPCLPEAEAMFAINADGVGDAKD

B5: oligo P1 ssDNA (ssDNA)
DNA: TTATATCCTTTACTTTGAATTCTATGTTTAACCTTTTACTTATTTTGTATTAGCCGGATCCTTATTTCAATTATGTTCAT
EC50 (RAD51 Y54F,Y315F [2]): 427 nM | EC50 (RAD51 WT [3]): 515 nM

B6: P1/P2 dsDNA (dsDNA)
DNA 1: TTATATCCTTTACTTTGAATTCTATGTTTAACCTTTTACTTATTTTGTATTAGCCGGATCCTTATTTCAATTATGTTCAT
DNA 2: ATGAACATAATTGAAATAAGGATCCGGCTAATACAAAATAAGTAAAAGGTTAAACATAGAATTCAAAGTAAAGGATATAA
EC50 (RAD51 Y54F,Y315F [4]): 561 nM | EC50 (RAD51 WT [5]): 1160 nM | EC50 (RAD51 Y54D,Y315D): 3070 nM

EC50 (cy5-labeled ssDNA; [6]): 515 nM | Kd (cy5-labeled dsDNA; DNA (type not stated), FIG. 3E): > 2000 nM | EC50 (cy5-labeled dsDNA; [7]): 2200 nM
B7: SQTQ: phosphomimetic EYA4 double mutant in the ATM-ATR consensus site SQTQ (S209D, T211D) (protein, UniProt O95677 1-639, looked up, variant S209D T211D)
Protein phosphatase EYA4: MEDSQDLNEQSVKKTCTESDVSQSQNSRSMEMQDLASPHTLVGGGDTPGSSKLEKSNLSSTSVTTNGTGGENMTVLNTADWLLSCNTPSSATMSLLAVKTEPLNSSETTATTGDGALDTFTGSVITSSGYSPRSAHQYSPQLYPSKPYPHILSTPAAQTMSAYAGQTQYSGMQQPAVYTAYSQTGQPYSLPTYDLGVMLPAIKTESGLDQDQSPLQSGCLSYSPGFSTPQPGQTPYSYQMPGSSFAPSSTIYANNSVSNSTNFSGSQQDYPSYTAFGQNQYAQYYSASTYGAYMTSNNTADGTPSSTSTYQLQESLPGLTNQPGEFDTMQSPSTPIKDLDERTCRSSGSKSRGRGRKNNPSPPPDSDLERVFVWDLDETIIVFHSLLTGSYAQKYGKDPPMAVTLGLRMEEMIFNLADTHLFFNDLEECDQVHIDDVSSDDNGQDLSTYSFATDGFHAAASSANLCLPTGVRGGVDWMRKLAFRYRRVKELYNTYKNNVGGLLGPAKRDAWLQLRAEIEGLTDSWLTNALKSLSIISTRSNCINVLVTTTQLIPALAKVLLYSLGGAFPIENIYSATKIGKESCFERIMQRFGRKVVYVVIGDGVEEEQAAKKHNMPFWRISSHSDLLALHQALELEYL
